According to patent publication US20230072897A1, “ANTI-B7-H4 ANTIBODY-DRUG CONJUGATE AND MEDICINAL USE THEREOF” (SHANGHAI HANSOH BIOMEDICAL CO., LTD., priority 2019, published 2023):

Molecular target: human B7-H4 on MX-1 cells (human) (UniProt Q7Z7D3)
Test: cell-based or functional assay

UniProt Q7Z7D3, sequence (Q7Z7D3 25-282): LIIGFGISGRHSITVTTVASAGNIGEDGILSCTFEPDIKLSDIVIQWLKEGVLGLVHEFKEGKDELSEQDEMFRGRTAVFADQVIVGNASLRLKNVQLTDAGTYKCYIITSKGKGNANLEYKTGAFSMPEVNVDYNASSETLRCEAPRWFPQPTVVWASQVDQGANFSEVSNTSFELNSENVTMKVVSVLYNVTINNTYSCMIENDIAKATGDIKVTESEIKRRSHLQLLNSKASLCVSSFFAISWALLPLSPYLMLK

Substance: IgG control (antibody)
- Humanized antibody-mediated endocytosis efficiency of B7-H4 protein, 0 hour (%): 0%
- Humanized antibody-mediated endocytosis efficiency of B7-H4 protein, 0.5 hour (%): 0.1%
- Humanized antibody-mediated endocytosis efficiency of B7-H4 protein, 2 hours (%): 0.9%
